In PMC4658161, “Mutually Exclusive Roles of SHARPIN in Integrin Inactivation and NF-κB Signaling” (PLoS ONE, 2015):

Molecular target: T1, recombinant full-length human ITGAL-ITGB2 (human, UniProt P20701 26-1170; P05107 23-769)
T1 construct: integrin alpha L (ITGAL), human, full-length; integrin beta 2 (ITGB2), human, full-length; also called full-length ITGAL-ITGB2; LFA-1; source: bought: Origene
Assay: far-Western; GST-SHARPIN (WT, fragments or point mutants) with recombinant full-length ITGAL-ITGB2 or recombinant RNF31; which partner was on the membrane is not told; performed as described in ref. 5
Conditions: both partners purified

T1 sequence (P20701 26-1170, chain 1 of 2): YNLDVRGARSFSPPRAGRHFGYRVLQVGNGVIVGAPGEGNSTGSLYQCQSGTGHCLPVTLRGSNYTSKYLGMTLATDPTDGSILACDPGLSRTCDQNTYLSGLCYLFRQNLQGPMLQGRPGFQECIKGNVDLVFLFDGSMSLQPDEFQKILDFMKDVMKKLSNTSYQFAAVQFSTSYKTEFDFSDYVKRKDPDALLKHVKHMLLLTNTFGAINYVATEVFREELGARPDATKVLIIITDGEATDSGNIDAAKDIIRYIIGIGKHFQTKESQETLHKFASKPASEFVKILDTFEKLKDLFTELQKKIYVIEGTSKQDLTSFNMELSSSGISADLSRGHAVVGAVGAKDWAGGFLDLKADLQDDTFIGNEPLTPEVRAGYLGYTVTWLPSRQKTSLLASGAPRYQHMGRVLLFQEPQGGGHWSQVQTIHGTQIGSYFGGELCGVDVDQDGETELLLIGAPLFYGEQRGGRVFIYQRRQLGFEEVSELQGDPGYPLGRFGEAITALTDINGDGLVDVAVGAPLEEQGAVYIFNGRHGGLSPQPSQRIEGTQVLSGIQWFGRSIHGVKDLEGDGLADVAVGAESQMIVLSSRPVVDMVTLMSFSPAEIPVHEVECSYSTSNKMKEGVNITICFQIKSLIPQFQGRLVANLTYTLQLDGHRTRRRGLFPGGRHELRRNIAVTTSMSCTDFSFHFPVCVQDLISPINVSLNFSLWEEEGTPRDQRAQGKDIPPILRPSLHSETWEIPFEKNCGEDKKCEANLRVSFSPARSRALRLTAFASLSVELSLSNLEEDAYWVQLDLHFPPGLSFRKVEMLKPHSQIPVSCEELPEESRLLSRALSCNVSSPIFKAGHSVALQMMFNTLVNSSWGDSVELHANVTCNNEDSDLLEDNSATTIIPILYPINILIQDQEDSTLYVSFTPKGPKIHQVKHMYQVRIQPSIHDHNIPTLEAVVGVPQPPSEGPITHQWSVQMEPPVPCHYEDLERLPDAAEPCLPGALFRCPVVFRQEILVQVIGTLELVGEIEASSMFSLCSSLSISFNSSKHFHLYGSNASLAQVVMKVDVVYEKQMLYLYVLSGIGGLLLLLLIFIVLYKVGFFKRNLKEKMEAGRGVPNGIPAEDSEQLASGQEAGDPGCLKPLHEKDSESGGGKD
T1 sequence (P05107 23-769, chain 2 of 2): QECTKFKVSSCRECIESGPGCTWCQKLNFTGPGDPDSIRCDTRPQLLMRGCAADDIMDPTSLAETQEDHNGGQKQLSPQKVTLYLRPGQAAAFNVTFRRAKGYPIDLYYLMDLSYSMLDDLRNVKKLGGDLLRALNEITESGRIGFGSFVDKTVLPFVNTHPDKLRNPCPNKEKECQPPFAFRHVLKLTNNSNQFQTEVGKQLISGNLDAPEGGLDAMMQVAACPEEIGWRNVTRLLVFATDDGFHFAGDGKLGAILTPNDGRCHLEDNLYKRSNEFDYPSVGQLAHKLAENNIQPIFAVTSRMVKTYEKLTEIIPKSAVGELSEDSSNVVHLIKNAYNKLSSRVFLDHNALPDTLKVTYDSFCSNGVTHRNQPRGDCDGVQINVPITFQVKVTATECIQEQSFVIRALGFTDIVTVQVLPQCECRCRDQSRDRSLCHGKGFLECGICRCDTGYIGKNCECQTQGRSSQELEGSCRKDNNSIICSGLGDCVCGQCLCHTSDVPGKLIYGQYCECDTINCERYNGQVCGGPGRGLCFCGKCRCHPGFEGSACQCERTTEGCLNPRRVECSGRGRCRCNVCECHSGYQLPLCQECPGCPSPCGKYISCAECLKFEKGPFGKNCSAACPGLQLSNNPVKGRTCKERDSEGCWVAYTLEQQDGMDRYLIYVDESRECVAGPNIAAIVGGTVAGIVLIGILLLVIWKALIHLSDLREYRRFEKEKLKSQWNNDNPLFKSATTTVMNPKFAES

B1: GST-SHARPIN^WT (natural protein, UniProt Q9H0F6 1-387, looked up)
chain: MAPPAGGAAAAASDLGSAAVLLAVHAAVRPLGAGPDAEAQLRRLQLSADPERPGRFRLELLGAGPGAVNLEWPLESVSYTIRGPTQHELQPPPGGPGTLSLHFLNPQEAQRWAVLVRGATVEGQNGSKSNSPPALGPEACPVSLPSPPEASTLKGPPPEADLPRSPGNLTEREELAGSLARAIAGGDEKGAAQVAAVLAQHRVALSVQLQEACFPPGPIRLQVTLEDAASAASAASSAHVALQVHPHCTVAALQEQVFSELGFPPAVQRWVIGRCLCVPERSLASYGVRQDGDPAFLYLLSAPREAPATGPSPQHPQKMDGELGRLFPPSLGLPPGPQPAASSLPSPLQPSWSCPSCTFINAPDRPGCEMCSTQRPCTWDPLAAAST
notes: also called GST-SHARPIN (full-length); source: E. coli strain Rosetta BL21DE3, purified
binding result: binds

B2: GST-SHARPIN^L276A (natural protein, UniProt Q9H0F6 1-387, looked up)
chain: MAPPAGGAAAAASDLGSAAVLLAVHAAVRPLGAGPDAEAQLRRLQLSADPERPGRFRLELLGAGPGAVNLEWPLESVSYTIRGPTQHELQPPPGGPGTLSLHFLNPQEAQRWAVLVRGATVEGQNGSKSNSPPALGPEACPVSLPSPPEASTLKGPPPEADLPRSPGNLTEREELAGSLARAIAGGDEKGAAQVAAVLAQHRVALSVQLQEACFPPGPIRLQVTLEDAASAASAASSAHVALQVHPHCTVAALQEQVFSELGFPPAVQRWVIGRCACVPERSLASYGVRQDGDPAFLYLLSAPREAPATGPSPQHPQKMDGELGRLFPPSLGLPPGPQPAASSLPSPLQPSWSCPSCTFINAPDRPGCEMCSTQRPCTWDPLAAAST
notes: source: E. coli strain Rosetta BL21DE3, purified
binding result: binds
